Experimental findings from PMC9470675 (Signal Transduction and Targeted Therapy, 2022) are described below.

The labels stand for the following.
B2: recombinant MASP-2 (purified) (enzyme, human, UniProt O00187 16-686, looked up)
chain: TPLGPKWPEPVFGRLASPGFPGEYANDQERRWTLTAPPGYRLRLYFTHFDLELSHLCEYDFVKLSSGAKVLATLCGQESTDTERAPGKDTFYSLGSSLDITFRSDYSNEKPFTGFEAFYAAEDIDECQVAPGEAPTCDHHCHNHLGGFYCSCRAGYVLHRNKRTCSALCSGQVFTQRSGELSSPEYPRPYPKLSSCTYSISLEEGFSVILDFVESFDVETHPETLCPYDFLKIQTDREEHGPFCGKTLPHRIETKSNTVTITFVTDESGDHTGWKIHYTSTAQPCPYPMAPPNGHVSPVQAKYILKDSFSIFCETGYELLQGHLPLKSFTAVCQKDGSWDRPMPACSIVDCGPPDDLPSGRVEYITGPGVTTYKAVIQYSCEETFYTMKVNDGKYVCEADGFWTSSKGEKSLPVCEPVCGLSARTTGGRIYGGQKAKPGDFPWQVLILGGTTAAGALLYDNWVLTAAHAVYEQKHDASALDIRMGTLKRLSPHYTQAWSEAVFIHEGYTHDAGFDNDIALIKLNNKVVINSNITPICLPRKEAESFMRTDDIGTASGWGLTQRGFLARNLMYVDIPIVDHQKCTAAYEKPPYPRGSVTANMLCAGLESGGKDSCRGDSGGALVFLDSETERWFVGGIVSWGSMNCGEAGQYGVYTKVINYIPWIENIISDF
notes: also called Purified MASP-2

Test [1] deals with B2. Nature of the test: SPR; purified proteins; who was immobilised and the conditions not given. Particulars: both partners purified.
The target in test [2] is Purified SARS-CoV-2 N-His (SARS-CoV-2, UniProt P0DTC9 1-419). Described as above. Particulars: both partners purified.

B1: SARS-CoV N protein (purified recombinant) (natural protein)
chain: not shown
Consider B1, for which, in test [1], the equilibrium dissociation constant (Kd) – broadly, the concentration at which binding is half-saturated – turned out to be 268 nM. Molecule B2 registered a Kd in test [2] of 518 nM.
